Data from US20240261221A1, “POLYOL-MODIFIED LIPID COMPOUND AND PREPARATION METHOD AND APPLICATION THEREOF” (JENKEM TECHNOLOGY CO., LTD. (TIANJIN), priority 2021, published 2024).

Legend:
[1] = test system: KDR mRNA; assay: Gene inhibitory effect of siRNA-PEG-lipid particle composition after cell delivery in A375 cells; assay type: cell-based; conditions: particles prepared from PEG-lipids and anti-KDR siRNA, 24 h and 48 h after transfection
Procedure: (1) ARPE-19 cells were cultured in a DMEM/F12+12% FBS+double antibody medium (containing 100 U/mL Penicillin, 100 μg/mL Streptomycin) and placed in an incubator at 37° C. with 5% CO2 and saturated humidity. 24 h before the experiment, the cells were seeded onto a 12-well plate at 1.2×10^5 cell/well and cultured overnight. (2) 50 μL of diluted anti-KDR siRNA:compound 1 (1:10), anti-KDR siRNA:compound 2 (1:10), and anti-KDR siRNA:compound 3 (1:10) (in molar ratios: the siRNA concentration was 20 μM) from […] with an OPTI-MEM culture medium were separately mixed with 50 μL of a diluted Lipofectamine 3000™ transfection reagent from 3 μL with an OPTI-MEM culture medium for positive control, followed by gently shaking, and the mixed solutions were left to stand for 15 min. In addition, a blank group, an NC group, and an NC-RL group were set.
Anti-KDR siRNA is an siRNA that inhibits VEGFR2 mRNA expression, and the preparation method therefor is described in patent document CN202010229195.2: the sequence is as follows: • Sense strand: 5′-GGAGUGAGAUGAAGAAAUU-3′; • Antisense strand: 5′-AAUUUCUUCAUCUCACUCC-3′. (3) The medium was refreshed for the cells in each well in the cell plate, an antibiotic-free culture medium was added at 900 μL/well, and then 100 μL of the mixed solution was added into each well, finally the total volume of each well being 1000 μL. The siRNA (or siRNA NC, or siR-NC RL) transfection concentration was 50 nM. (4) 24 h and 48 h after transfection, the 12-well plate was taken out from the incubator at 37° C. with 5% CO2, and the cells were harvested for RNA extraction for subsequent detection.
The relative expression level of KDR mRNA was calculated by AACt with GAPDH as an endogenous reference gene: mRNA expression levels were normalized for each group with the expression level for the blank group as 100%.
The foregoing procedure was similar to that of Example 4 except that the culture medium for the A375 cells was a DMEM culture medium containing 10% FBS (containing 100 U/mL Penicillin, 100 μg/mL of Streptomycin).

[2] = test system: guinea pigs; assay: Allergy study of PEG-lipids in guinea pigs: systemic sensitization symptom grading; assay type: in vivo, guinea pig
Procedure: (§1) 48 healthy guinea pigs which were fed with food normally for 5 days were randomly divided into 6 groups, with 8 guinea pigs for each group.
(§2) Sensitization was carried out by intraperitoneal injection, and the administration was carried out once every other day at a volume of 1 mL/guinea pig for 4 times in total. On the second day after the last sensitization, each group of guinea pigs was challenged by applying a corresponding liquid medicine to the toes thereof via intravenous injection at a dose of 2 mL/guinea pig. […] Blood was collected 40 min after challenging and drug withdrawal, anticoagulated with heparin, and made into blood plasma.
During sensitization and at the time of challenge administration, animals were observed and recorded for the onset and duration of symptoms, such as nasal scratching, sneezing, restlessness, jumping, panting, and purpura, and the score and grade of symptoms were determined according to the criteria for grading symptoms of systemic sensitization (Table 3).

[3] = test system: IgE; assay: Plasma IgE level after challenge administration in guinea pigs; assay type: in vivo; conditions: guinea pig plasma, 40 min after challenge
Procedure: 48 healthy guinea pigs which were fed with food normally for 5 days were randomly divided into 6 groups, with 8 guinea pigs for each group. Group A: negative control group (0.9% sodium chloride injection): group B: positive control group (0.15 mg/mL ovalbumin solution. available from Sigma. USA, lot No. DHO15-4): group C: M-PEG47-DTDPAM (i.e., compound 1. prepared in Example 1); group D: M-PEG47-DTDPA (i.e., compound 2. prepared in Example 2): group E: M-DTDPAM-2000 (available from Tianjin JenKem Technology Co., Ltd., lot No. ZZ409P002); group F: M-DTDPA-2000 (available from Tianjin JenKem Technology Co., Ltd., lot No. ZZ409P004).
Sensitization was carried out by intraperitoneal injection, and the administration was carried out once every other day at a volume of 1 mL/guinea pig for 4 times in total. On the second day after the last sensitization, each group of guinea pigs was challenged by applying a corresponding liquid medicine to the toes thereof via intravenous injection at a dose of 2 mL/guinea pig. The animal state was observed daily during sensitization, the reaction of guinea pigs was continuously observed for 40 min at 15 min before and after challenging via intravenous injection, and the time of onset and disappearance of symptoms was recorded. Blood was collected 40 min after challenging and drug withdrawal, anticoagulated with heparin, and made into blood plasma.

[4] = test system: histamine; assay: Plasma histamine level after challenge administration in guinea pigs; assay type: in vivo, guinea pig
Procedure: as §1, §2

In the case of CCCCCCCCCCCCCCN(CCCCCCCCCCCCCC)C(=O)CCOCCOCCOCCOCCOCCOCCOCCOCCOCCOCCOCCOCCOCCOCCOCCOCCOCCOCCOCCOCCOCCOCCOCCOCCOCCOCCOCCOCCOCCOCCOCCOCCOCCOCCOCCOCCOCCOCCOCCOCCOCCOCCOCCOCCOCCOCCOCCOC [compound 1], the “inhibitory effect on KDR mRNA (relative expression level of KDR mRNA)” value [1] is reported as “significant and continuous inhibitory effect”.

For CCCCCCCCCCCCCCN(CCCCCCCCCCCCCC)CCCOCCOCCOCCOCCOCCOCCOCCOCCOCCOCCOCCOCCOCCOCCOCCOCCOCCOCCOCCOCCOCCOCCOCCOCCOCCOCCOCCOCCOCCOCCOCCOCCOCCOCCOCCOCCOCCOCCOCCOCCOCCOCCOCCOCCOCCOCCOCCOC [compound 2], the “inhibitory effect on KDR mRNA (relative expression level of KDR mRNA)” value [1] was “significant and continuous inhibitory effect”.

With CCCCCCCCCCCCCC(=O)OCC(COCCOCCOCCOCCOCCOCCOCCOCCOCCOCCOCCOCCOCCOCCOCCOCCOCCOCCOCCOCCOCCOCCOCCOCCOCCOCCOCCOCCOCCOCCOCCOCCOCCOCCOCCOCCOCCOCCOCCOCCOCCOCCOCCOCCOCCOCCOC)OC(=O)CCCCCCCCCCCCC (centres unmarked) [compound 3] the “inhibitory effect on KDR mRNA (relative expression level of KDR mRNA)” value [1] was “significant and continuous inhibitory effect”.

B1: Positive control group: 0.15 mg/mL ovalbumin solution, available from Sigma, USA (protein, UniProt P01012 2-386, looked up)
Ovalbumin: GSIGAASMEFCFDVFKELKVHHANENIFYCPIAIMSALAMVYLGAKDSTRTQINKVVRFDKLPGFGDSIEAQCGTSVNVHSSLRDILNQITKPNDVYSFSLASRLYAEERYPILPEYLQCVKELYRGGLEPINFQTAADQARELINSWVESQTNGIIRNVLQPSSVDSQTAMVLVNAIVFKGLWEKAFKDEDTQAMPFRVTEQESKPVQMMYQIGLFRVASMASEKMKILELPFASGTMSMLVLLPDEVSGLEQLESIINFEKLTEWTSSNVMEERKIKVYLPRMKMEEKYNLTSVLMAMGITDVFSSSANLSGISSAESLKISQAVHAAHAEINEAGREVVGSAEAGVDAASVSEEFRADHPFLFCIKHIATNAVLFFGRCVSP
With B1 the “Allergic symptoms (grade)” value ([2]; after challenge administration, grade per Table 3) was “extremely positive”, the Mean score ([2]; i.p. sensitization 4 times, i.v. challenge, scoring per Table 3) was 2.8 and the IgE level [3] was 286.33 ± 34.67 ng/mL. For the same molecule, the “plasma histamine level compared with group A” value ([4]; guinea pig plasma after challenge) was “significantly different from that of group A” and the Histamine level ([4]; guinea pig plasma, 40 min after challenge) was 12.21 ± 4.25 ng/mL.
